From patent US20240018262A1 come the findings set out here.

For assay [1], the target named is GPC3 expressed on hepatoma cell line HepG2 (human) (UniProt P51654). The assay is described as follows: flow cytometry on HepG2 cells, secondary antibody alone (background control); mean fluorescence. (A flow cytometer gives signals particle by particle.)
Assay [2] shares this target. The experiment in a line: flow cytometry on HepG2 cells, secondary antibody alone (background control); median fluorescence.

Chain of GPC3 expressed on hepatoma cell line HepG2 (human) (P51654 25-554 limits assumed): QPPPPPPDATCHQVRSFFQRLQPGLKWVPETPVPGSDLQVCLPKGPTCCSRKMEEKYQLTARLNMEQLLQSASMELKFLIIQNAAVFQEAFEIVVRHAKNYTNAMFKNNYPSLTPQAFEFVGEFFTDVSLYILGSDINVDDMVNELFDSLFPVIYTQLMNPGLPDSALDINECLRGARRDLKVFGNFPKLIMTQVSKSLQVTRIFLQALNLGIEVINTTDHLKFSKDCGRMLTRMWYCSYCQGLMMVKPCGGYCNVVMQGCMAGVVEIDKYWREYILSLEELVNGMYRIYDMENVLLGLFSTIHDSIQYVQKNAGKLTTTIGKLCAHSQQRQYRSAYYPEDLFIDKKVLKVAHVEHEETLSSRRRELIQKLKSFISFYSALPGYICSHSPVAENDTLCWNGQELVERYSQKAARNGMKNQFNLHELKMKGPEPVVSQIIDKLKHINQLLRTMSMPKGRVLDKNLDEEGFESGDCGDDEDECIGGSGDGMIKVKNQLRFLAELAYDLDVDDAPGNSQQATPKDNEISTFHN

Substance “PE-conjugated goat anti-mouse IgG (Biolegend Inc., cat #405307) (antibody)” displayed a Mean in assay [1] of 243. In assay [2], the Median turned out to be 205.
